The values that follow come from paper doi:10.1101/2024.04.27.591446 (bioRxiv, 2024).

Test [1] deals with SARS-CoV-2 EG5.1 S ectodomain with 6P and furin mutations, trimer (SARS-CoV-2 Omicron EG.5.1, stabilised). The experiment in a line: cryo-EM structure.
The target of test [2] is SARS-CoV-2 Spike Wuhan-Hu-1 (SARS-CoV-2 Wuhan-Hu-1, UniProt P0DTC2). The experiment in a line: ELISA.

B1: 1301B7 Fab (Fab, V domains shown)
VH: EVQLVESGAEVKNPGSSVKVSCKASEGTFGSYPIIWVRQAPGQGLEWVGGIIPILGTVIYAQKFQGRVTITGDTYAGSAHMELSGLRSEDTAVFYCARGSYDYGDRLLNYTYYAMDVWGPGTTVTVSS
VL: QPGLTQPPSVSGAPGQRVTISCTGSRSNIGAVYAVHWYQHVPGAAPKLLIYENNNRPSGIPDRFSGSKSGTSASLVITGLQAEDEADYLCQSYDRSVGVVFGGGTRLTVL
The stoichiometry N is the number of molecules, sites or subunits per partner or assembly. As for B1, the “stoichiometry N” value in test [1] was 1 Fab per Spike trimer.

B2: 1301B7 recombinant human monoclonal antibody (hmAb), IgG1 (antibody, V domains shown)
VH: EVQLVESGAEVKNPGSSVKVSCKASEGTFGSYPIIWVRQAPGQGLEWVGGIIPILGTVIYAQKFQGRVTITGDTYAGSAHMELSGLRSEDTAVFYCARGSYDYGDRLLNYTYYAMDVWGPGTTVTVSS
VL: QPGLTQPPSVSGAPGQRVTISCTGSRSNIGAVYAVHWYQHVPGAAPKLLIYENNNRPSGIPDRFSGSKSGTSASLVITGLQAEDEADYLCQSYDRSVGVVFGGGTRLTVL
On to B2, for which the binding result in test [2] is “binds”.
